Assay results published in the Human Domainome abundance scans (Beltran et al. 2025).
± gives the uncertainty stated by the source.

B1: 1-phosphatidylinositol 4,5-bisphosphate phosphodiesterase gamma-2, residues 772 to 827; numbered along this chain, P16885 (parent)
chain: RTVKALYDYKAKRSDELSFCRGALIHNVSKEPGGWWKGDYGTRIQQYFPSNYVEDI

Variants of: B1
Assay: abundance fitness (aPCA) (normalised: wild type 0, dead -1); higher = more abundant; growth selection in yeast, the domain comes from the species named
Conditions: Homo sapiens

Abundance fitness of substitutions, site by site:
C20: S 0.008 ± 0.075; T -0.012 ± 0.083; V 0.017 ± 0.051; W -0.446 ± 0.1
R21: F -0.235 ± 0.19; K -0.247 ± 0.28; L -0.79 ± 0.19; N -0.086 ± 0.36; S -0.285 ± 0.14; V -0.122 ± 0.088
G22: C -0.86 ± 0.36; D -0.236 ± 0.086; E -0.418 ± 0.19; F -0.802 ± 0.21; H -0.704 ± 0.34; K -0.203 ± 0.34; L -1.14 ± 0.32; M -0.52 ± 0.23; N -0.364 ± 0.26; P -0.688 ± 0.28; R -0.775 ± 0.083; S -0.681 ± 0.14; T -0.872 ± 0.095; V -0.911 ± 0.24; W -0.811 ± 0.092; Y -0.856 ± 0.46
A23: C -0.092 ± 0.16; D 0.096 ± 0.09; E -0.052 ± 0.088; F -0.314 ± 0.23; H -0.471 ± 0.27; I -0.613 ± 0.23; K -0.745 ± 0.38; N -0.131 ± 0.08; Q -0.595 ± 0.19; R -0.698 ± 0.086; S -0.154 ± 0.093; T -0.065 ± 0.09; V -0.296 ± 0.083; W -0.858 ± 0.32; Y -0.059 ± 0.15
L24: A -0.659 ± 0.12; C -0.044 ± 0.099; D -0.781 ± 0.47; E -0.083 ± 0.063; G -0.837 ± 0.16; H -0.335 ± 0.22; K -0.215 ± 0.058; M -0.207 ± 0.1; N -0.212 ± 0.14; P -0.818 ± 0.072; Q -0.267 ± 0.076; R -0.299 ± 0.075; T -0.222 ± 0.11; V -0.046 ± 0.075; W -0.359 ± 0.12; Y 0.041 ± 0.13
I25: A -0.741 ± 0.16; F -0.598 ± 0.3; L -0.386 ± 0.11; Q -0.921 ± 0.32; R -0.976 ± 0.47; S -1 ± 0.34; V -0.481 ± 0.078; W -0.723 ± 0.31
H26: A -0.113 ± 0.044; C -0.087 ± 0.12; D -0.173 ± 0.12; E -0.002 ± 0.087; F 0.012 ± 0.14; G -0.43 ± 0.093; I -0.084 ± 0.13; K -0.221 ± 0.14; L -0.081 ± 0.082; M -0.069 ± 0.096; N -0.198 ± 0.094; P -1.1 ± 0.24; Q -0.005 ± 0.086; S 0.01 ± 0.073; T 0.034 ± 0.11; V -0.035 ± 0.07; W -0.072 ± 0.08; Y -0.121 ± 0.12
N27: A -0.56 ± 0.12; C -0.722 ± 0.14; E -0.164 ± 0.15; F -1.05 ± 0.47; G -0.654 ± 0.067; H -0.486 ± 0.35; I -0.748 ± 0.4; K -0.625 ± 0.06; L -0.974 ± 0.24; M -0.695 ± 0.28; Q -0.13 ± 0.17; R -0.549 ± 0.062; S -0.473 ± 0.12; V -0.958 ± 0.28; W -0.956 ± 0.32
V28: A -0.873 ± 0.36; C -0.568 ± 0.19; D -0.821 ± 0.47; K -0.623 ± 0.35; M -1.08 ± 0.15; N -0.671 ± 0.49; Q -0.762 ± 0.3; R -0.788 ± 0.085; S -0.836 ± 0.25; T -0.486 ± 0.23; W -0.793 ± 0.17
S29: F 0.151 ± 0.28
K30: A -0.195 ± 0.057; C -0.077 ± 0.18; D -0.214 ± 0.11; E -0.042 ± 0.072; F -0.21 ± 0.062; G -0.576 ± 0.23; H -0.054 ± 0.086; I 0.245 ± 0.089; L -0.169 ± 0.057; M -0.092 ± 0.082; N -0.167 ± 0.1; P 0.246 ± 0.094; Q -0.208 ± 0.081; R -0.05 ± 0.093; T -0.245 ± 0.11; V -0.047 ± 0.059; W -0.293 ± 0.17; Y 0.039 ± 0.086
E31: A -0.1 ± 0.065; C -0.069 ± 0.1; D -0.22 ± 0.086; F 0.016 ± 0.083; G 0.065 ± 0.07; H -0.265 ± 0.14; I -0.174 ± 0.12; K -0.135 ± 0.11; L -0.015 ± 0.072; M -0.009 ± 0.1; N -0.169 ± 0.2; P -0.291 ± 0.12; Q -0.071 ± 0.13; S 0.002 ± 0.073; T 0.141 ± 0.088; V -0.099 ± 0.073; W 0.036 ± 0.15; Y -0.05 ± 0.069
P32: A 0.056 ± 0.073; C -0.275 ± 0.24; D -0.087 ± 0.14; E 0.126 ± 0.082; F -0.247 ± 0.26; G -0.115 ± 0.044; K -0.229 ± 0.15; L -0.014 ± 0.078; M 0.093 ± 0.099; N 0.256 ± 0.3; Q 0.022 ± 0.11; R -0.166 ± 0.085; S -0.011 ± 0.08; V -0.315 ± 0.084; W -0.406 ± 0.058; Y -0.278 ± 0.31
G33: A -0.547 ± 0.18; C -0.108 ± 0.087; D -0.168 ± 0.055; E -0.274 ± 0.21; F -0.203 ± 0.17; H -0.277 ± 0.15; K -0.781 ± 0.47; L -0.408 ± 0.07; N -0.102 ± 0.067; P -0.699 ± 0.12; Q -0.556 ± 0.34; R -0.434 ± 0.061; S -0.114 ± 0.049; T -0.421 ± 0.15; V -0.82 ± 0.2; W -0.258 ± 0.092; Y -0.293 ± 0.064
G34: A -0.074 ± 0.06; C -0.284 ± 0.14; D -0.085 ± 0.09; E -0.06 ± 0.096; H -0.101 ± 0.06; I -0.143 ± 0.15; K 0.024 ± 0.12; L -0.083 ± 0.067; M -0.11 ± 0.094; N 0.138 ± 0.092; P 0.01 ± 0.071; Q -0.094 ± 0.064; R -0.06 ± 0.069; S -0.129 ± 0.051; T 0.014 ± 0.088; V -0.032 ± 0.059; W -0.445 ± 0.12; Y -0.164 ± 0.15
W35: A -0.383 ± 0.062; D -0.381 ± 0.36; E -0.217 ± 0.062; F 0.044 ± 0.19; G -0.625 ± 0.072; I -0.611 ± 0.32; K -0.58 ± 0.17; L -0.058 ± 0.072; M -0.225 ± 0.11; P -0.616 ± 0.12; R 0.089 ± 0.074; S -0.273 ± 0.14; T -0.281 ± 0.31; V -0.29 ± 0.057
W36: A -0.214 ± 0.085; C -0.108 ± 0.045; D -0.576 ± 0.28; E -0.809 ± 0.33; F -0.308 ± 0.24; G -0.58 ± 0.12; I -0.611 ± 0.48; K -0.705 ± 0.27; L -0.095 ± 0.06; M -0.108 ± 0.12; Q -0.839 ± 0.29; R -0.724 ± 0.081; S 0.22 ± 0.088; T -0.89 ± 0.31; Y -0.368 ± 0.12
K37: A -0.622 ± 0.082; C -0.318 ± 0.1; D -0.486 ± 0.49; E -0.757 ± 0.49; F -0.371 ± 0.21; G -0.887 ± 0.3; I -0.301 ± 0.17; L -0.276 ± 0.077; M -0.548 ± 0.15; P -0.617 ± 0.19; Q -0.407 ± 0.15; R -0.091 ± 0.067; T -0.32 ± 0.14; V -0.213 ± 0.048; W -0.908 ± 0.22; Y -0.301 ± 0.39
G38: A -0.83 ± 0.27; E -0.595 ± 0.17; I -0.765 ± 0.47; K -1.01 ± 0.44; L -1.11 ± 0.2; R -0.959 ± 0.14; S -1 ± 0.18; T -0.821 ± 0.47; V -0.851 ± 0.2; W -0.803 ± 0.19
D39: A -1.01 ± 0.14; E -0.798 ± 0.17; F -0.486 ± 0.49; G -0.864 ± 0.13; K -0.74 ± 0.5; M -0.924 ± 0.36; P -0.851 ± 0.33; Q -0.958 ± 0.21; R -1.01 ± 0.084; S -0.825 ± 0.077; T -0.418 ± 0.21; V -0.882 ± 0.18; W -0.82 ± 0.2; Y -0.31 ± 0.46
Y40: A -0.3 ± 0.13; C -0.061 ± 0.089; D -0.711 ± 0.47; E -0.419 ± 0.26; G -0.864 ± 0.085; H 0.031 ± 0.17; I 0.107 ± 0.12; K 0.189 ± 0.11; L 0.041 ± 0.068; M -0.336 ± 0.32; N -0.284 ± 0.098; Q -0.312 ± 0.063; R -0.498 ± 0.067; S -0.284 ± 0.093; T -0.265 ± 0.09; V -0.216 ± 0.069; W -0.713 ± 0.15
G41: A -0.273 ± 0.061; C -0.581 ± 0.21; D 0.069 ± 0.077; E -0.117 ± 0.068; F -0.54 ± 0.23; H -0.151 ± 0.38; I -0.566 ± 0.37; K -0.012 ± 0.08; M -0.268 ± 0.12; P -1.01 ± 0.13; Q -0.217 ± 0.1; R -0.234 ± 0.044; S -0.627 ± 0.14; T -0.699 ± 0.17; V -0.889 ± 0.078; Y -0.557 ± 0.35
T42: A -0.065 ± 0.06; C -0.227 ± 0.17; D 0.076 ± 0.068; E 0.168 ± 0.081; F -0.152 ± 0.043; G 0.078 ± 0.052; I -0.021 ± 0.074; K -0.243 ± 0.13; L -0.155 ± 0.079; M -0.01 ± 0.086; N 0.139 ± 0.13; P 0.147 ± 0.13; Q -0.262 ± 0.21; R 0.03 ± 0.063; S 0.054 ± 0.086; V -0.165 ± 0.065; W -0.186 ± 0.045; Y -0.385 ± 0.27
R43: A 0.015 ± 0.065; C -0.111 ± 0.11; D -0.243 ± 0.15; E -0.033 ± 0.085; F -0.359 ± 0.17; G -0.01 ± 0.051; H 0.022 ± 0.092; I -0.377 ± 0.15; K -0.018 ± 0.1; L -0.139 ± 0.048; M -0.049 ± 0.079; N 0.097 ± 0.12; P -0.909 ± 0.17; Q -0.039 ± 0.12; S -0.199 ± 0.08; T -0.269 ± 0.068; V -0.349 ± 0.08
